B1: 6H8: anti-HSP90 monoclonal antibody produced by hybridoma FERM BP-11222; epitope … (antibody)
VH: QVQLQQSGPELVKPGASVRISCKASGYTFTSYYIHWVKQRPGQGLEWIGWIYPGNVNTKYNEKFKGKATLTADKSSSTAYMQLSSLTSEDSAVYFCARYGNYPFAYWGQGTLVTVSAAKTTAPSVYPLAPVCGDTTGSSVTLGCLVKGYF
VL: DVVMTQTPLSLPVSLGDQASISCRSSQSLVHSNGNTYLHWYLQKPGQSPKLLIYKVSNRFSGVPDRFSGSGSGTDFTLKISRVEAEDLGVYFCSQSTHVPPTFGGGTKLEIKRADAAPTVSIFPPSSEQLTSGGASVVCFLNNFYPKDINVKWKIDGS
B2: 6H8-OVA: high molecular weight conjugate of the 6H8 antibody and maleimide-activated OVA (conjugate)
VH: B1 VH
VL: B1 VL
chain: GSIGAASMEFCFDVFKELKVHHANENIFYCPIAIMSALAMVYLGAKDSTRTQINKVVRFDKLPGFGDSIEAQCGTSVNVHSSLRDILNQITKPNDVYSFSLASRLYAEERYPILPEYLQCVKELYRGGLEPINFQTAADQARELINSWVESQTNGIIRNVLQPSSVDSQTAMVLVNAIVFKGLWEKAFKDEDTQAMPFRVTEQESKPVQMMYQIGLFRVASMASEKMKILELPFASGTMSMLVLLPDEVSGLEQLESIINFEKLTEWTSSNVMEERKIKVYLPRMKMEEKYNLTSVLMAMGITDVFSSSANLSGISSAESLKISQAVHAAHAEINEAGREVVGSAEAGVDAASVSEEFRADHPFLFCIKHIATNAVLFFGRCVSP

Columns and labels:
[1] = tested on: HSP90; assay: Western blot of DC2.4 dendritic cell line extract with anti-HSP90 antibodies; type: binding; settings: SDS-PAGE
Protocol: A BALE/c mouse was twice immunized with 50 μg of human recombinant HSP90α (prepared using an Escherichia coli expression vector supplied by Professor Takayuki Nemoto at the Nagasaki University School of Dentistry; see J. Biol. Chem. 272:26179-26187, 1997). The adjuvant used was 50 μl of TiterMax Gold (TiterMax, Ga., USA). Three days after final immunization, splenocytes were taken out from the immunized mouse and fused with P3U1 myeloma cells in a 1:1 ratio by means of polyethylene glycol 4000. The fused cells were seeded to a 96-well plate at 5000 cells/well and cultured in an HAT selection culture broth (an RPMI containing 10% FCS, supplemented with 0.1 mM hypoxanthine, 0.016 mM thymidine, and […] aminopterin) for 10 days. The antibodies against HSP90a present in the supernatants in wells containing proliferated cells were detected by ELISA. The hybridomas secreting the antibodies against HSP90α were re-seeded at 0.2 cells/well and further cultured using an HT selection culture broth (an RPMI containing 10% FCS, supplemented with 0.1 mM hypoxanthine and 0.016 mM thymidine) for 10 days. For the antibodies in the supernatants of proliferated cells, it was confirmed using ELISA and Western blotting that antibodies against HSP90 were secreted. […]

[2] = tested on: OT-I CD8+ T cells; assay: In vitro cross-presentation assay with BMDC of normal and FcRγ KO mouse; type: cell-based; settings: BMDC pulsed 3 hours, co-culture with OT-I CD8+ T cells, IFNγ ELISA
Protocol: (1) A bone marrow-derived dendritic cells (BMDCs) were established from a normal mouse and an FcRγ KO mouse (supplied by Professor Akira Shibuya, Immunology, Life System Medical Sciences, Majors of Medical Sciences, Graduate School of Comprehensive Human Sciences, University of Tsukuba) as described below. Bone marrow was recovered from a mouse femur and tibia, and 1×10^6 cells each were cultured in a 24-well plate using 2 ml/well of a complete RPMI containing 20 ng/ml recombinant mouse GM-CSF (R&D). Half of the medium was exchanged for a fresh medium on day 3 of cultivation, and the cells obtained on day 5 of cultivation were used as the BMDC. (2) BMDCs at Day 5 induced in a GM-CSF-dependent manner was stained with biotin-6H8 (2.5 μg/ml) and streptavidin-APC (0.2 μg/ml), and its fluorescence was determined using FACS Canto (BD).
(1) A pellet of 1×10^6 BMDC cells at Day 5 induced in a GM-CSF-dependent manner were prepared in a 15-ml tube. After adding 400 μl of an antigen (6H8-OVA, OVA, or OVA257-264) thereto, the tube was incubated with 5% CO2 at 37° C. for 3 hours. The cells were fixed in 0.5% para-formaldehyde, after which the cells were washed with 0.1 M glycine and then with RPMI; thereafter, the density was adjusted to 1×10^5 cells/ml. (2) Concurrently, OT-I CD8^+ T cells were purified and the density was adjusted to 1×10^5 cells/ml. […]

[3] = tested on: cell surface HSP90; assay: FACS of 6H8-OVA bound to DC2.4 and DC2.4L cells with anti-OVA antibody; type: binding
Protocol: Furthermore, using DC2.4L cells lacking cell surface HSP90 (a line detectable with 6H8 antibody, and showing decreased expression levels of cell surface HSP90 and H-2K^b; obtained during cultivation of DC2.4 and established by passage culture), the specificity of 6H8-OVA for cell surface HSP90 was examined. DC2.4 and DC2.4L cells were incubated along with the fractions 15 to 19 containing 6H8-OVA (mixture) (30 μg/ml), after which the cells were stained with the biotinylated anti-OVA monoclonal antibody and PE-Cy5 streptavidin, and analyzed by FACS.

[4] = tested on: specific CTL; assay: Specific CTL induction in immunized mice, comparison with IFA+OVA257-264; type: in vivo, mouse; settings: immunized twice at 1-week interval, tail vein; tetramer-positive cells in CD8-positive cells
Protocol: Mice were immunized twice with 6H8-OVA or IFA+OVA at a 1-week interval. For 6H8-OVA, the specified amount of 6H8-OVA was diluted in 200 μl of PBS and administered from the tail vein. For IFA+OVA, an emulsion was prepared so that the specified amount of OVA257-264 peptide would be contained in the 200 μl dose, and subcutaneously administered. The emulsion was prepared by mixing the required amount of the OVA257-264 peptide in PBS in advance, and adding an equal amount of IFA (SIGMA: F5506) thereto.
Seven days after final immunization, the spleen of each recipient mouse was collected and finely loosened using tweezers, and splenocytes were recovered. A pellet of splenocytes was prepared in a 15-ml tube, and 2 ml of an FCS-free complete RPMI containing the OVA257-264 peptide (final concentration 10^−5 M) was added thereto. With the lid of the tube loosened, the tube was allowed to stand in an incubator at 37° C. with 5% CO2 for 1 hour. Subsequently, the culture broth RPMI (containing 10% FCS) was added to adjust the total volume to 20 ml, and 2 ml each was put into a 24-well plate.
After 5 days of cultivation, the cells were recovered and stained using the H-2K^b+OVA257-264-specific tetramer (MBL: TS-5001-1) and FITC-anti-mouse CD8a (eBioscience: 11-0081), and induction of specific CTL was confirmed using FACS Canto. […]

[5] = tested on: OT-II CD4+ T cells; assay: In vivo division of OT-II CD4+ T cells; parameters: species or system mouse; settings: series of doses injected into recipient mice

Molecule | detection of HSP90 in Western blot [1] | cross-presentation potential of FcRγ KO mouse-derived dendritic cells compared with normal mouse-derived dendritic cells [2] | staining of DC2.4L cells with anti-OVA antibody after incubation with conjugate ([3]; DC2.4L cells lacking cell surface HSP90, 30 μg/ml) | staining of DC2.4 cells with anti-OVA antibody after incubation with conjugate ([3]; DC2.4 cells expressing cell surface HSP90, 30 μg/ml) | CTL induction compared with IFA+OVA [4] | promotion of the division of OT-II CD4+ T cells [5]
B1 | detected HSP90 as a single band | – | – | – | – | –
B2 | – | significantly decreased | not recognized by the OVA monoclonal antibody | recognized by the anti-OVA monoclonal antibody | as effective as, or more effective than, IFA+OVA | required a higher dose
